# Results taken from WO2019096294A1 (dated 2019).
# B1: h1601-008 (antibody, V domains shown)
# VH: EVQLVESGGGLVQPGGSLRLSCAASGFTFSDYYMAWVRQAPGKGLEWVSNINSDGSSTYYLDSLKSRFTISRDNSKNTLYLQMNSLKAEDTAVYYCARDHYHGNSYVFDYWGQGTTVTVSS
# VL: DIQMTQSPSSLSASVGDRVTITCKASEDIYNRLAWYQQKPGKAPRLIISGATSLETGVPSRFSGSGSGKDYTLTISSLQPEDFATYYCQQYWSTPWTFGGGTKVEIK
# notes: Humanized parent antibody from WO2017133673A1; Only VH and VL are tied to it; it was detected with an anti-human secondary antibody and captured with an anti-human capture kit
# Legend:
# [1] = biological target: T1, His-tagged human thrombin (human, UniProt P00734 328-622); assay: Biacore SPR; ratio of the affinities for thrombin and prothrombin
# [2] = biological target: T2, His-tagged human prothrombin (human, UniProt P00734 44-622, limits assumed); assay: binding ELISA; His-tagged human prothrombin coated on plate
# T2 construct: not shown: His tag
# [3] = biological target: T1, His-tagged human thrombin; assay: binding ELISA; biotinylated His-tagged human thrombin on streptavidin plate
binder,measurement,setting,value
B1,selective activity (affinity for thrombin relative to affinity for prothrombin),[1],11.2
same,EC50,[2],0.151 µg/mL
same,EC50,[3],0.375 µg/mL
